Source: patent publication US20240131065A1 (CRAGE MEDICAL, published 2024)

Biological target: T1, CD94 monomeric Fc fusion protein (human, UniProt P0DOX5 223-449 = IgG part)
T1 construct: also called huFc(hole)-CD94-ECD and huFc(knob); human CD94 monomeric Fc fusion protein antigen
Test: phage display panning on coated CD94 monomeric Fc fusion protein, then ELISA
Description: Briefly, immunotubes were coated with 10 μg/ml of the antigene CD94 monomeric Fc fusion protein prepared above, blocked with phosphate buffered saline (MPBS) comprising 3% […] for 2 hours at room temperature. In order to screen for antibodies that specifically bind to CD94, the phage library was added to the immunotubes coated with the antigen CD94 monomeric Fc fusion protein and bound for 1.5 hours. The non-specific phages were then washed away, and the bound phages were eluted with 100 mM triethylamine and infected E. coli TG1 in logarithmic growth phase. Expanded culture of the eluted phages, and the expanded phage library was purified using PEG/NaCl precipitation for the next round of screening.
A total of three rounds of screening were performed, and 9 positive clones that specifically bind to CD94 were obtained after three rounds of screening. These clones were subsequently subjected to ELISA and sequencing analysis, two unique sequences were selected, 2B1 and 2F1, respectively. The ELISA results are shown in FIG. 2 (NA is the blank control group).

B1: 2B1 (Fab, V domains shown)
VH: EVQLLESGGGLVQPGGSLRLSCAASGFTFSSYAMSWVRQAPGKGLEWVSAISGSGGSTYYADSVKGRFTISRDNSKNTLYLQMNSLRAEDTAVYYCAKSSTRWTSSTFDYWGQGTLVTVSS
VL: DIQMTQSPSTLSASVGDRVTITCRASQSISSWLAWYQQKPGKAPKLLIYDASSLESGVPSRFSGSGSGTEFTLTISSLQPDDFATYYCQQYYFYPYTFGQGTKVEIKR
notes: Clone from a fully human Fab phage display library; also called antibody 2B1; CD94-specific antibody
B1: binds.
